The results in this text go back to patent publication US11673947B2, “Target tissue-specific antigen-binding molecule” (Chugai Seiyaku Kabushiki Kaisha, priority 2012, dated 2023).

Assay [1] has as its target T1, hIL-6R (Homo sapiens, UniProt P08887).
T1 sequence (P08887 20-355 limits assumed): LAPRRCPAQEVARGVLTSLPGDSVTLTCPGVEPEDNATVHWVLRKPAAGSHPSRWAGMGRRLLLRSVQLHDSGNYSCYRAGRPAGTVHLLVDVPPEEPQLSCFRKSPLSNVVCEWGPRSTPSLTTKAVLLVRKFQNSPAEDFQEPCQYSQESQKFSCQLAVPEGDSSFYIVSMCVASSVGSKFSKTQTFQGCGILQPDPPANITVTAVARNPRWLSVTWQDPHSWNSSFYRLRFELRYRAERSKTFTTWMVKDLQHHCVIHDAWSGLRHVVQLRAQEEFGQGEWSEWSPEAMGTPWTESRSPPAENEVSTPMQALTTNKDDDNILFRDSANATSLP
As to the kind of experiment: Phage ELISA, binding to hIL-6R in the presence or absence of SC. As to conditions: in the presence of SC. How it is done: Culture supernatants containing phages were collected according to a conventional method (Methods Mol. Biol. (2002) 178, 133-145) from single colonies of E. coli obtained as described in (14-2). Phages purified by the method described in (2-4) were subjected to ELISA by the following procedure. A StreptaWell 96 microtiter plate (Roche) was coated overnight with 100 μl of TBS containing biotin-labeled hIL-6R. After biotin-labeled hIL-6R was removed by washing each well of the plate with TBST, the wells were blocked with 250 μl of 2% skim milk/TBS for one hour or more. 2% skim milk/TBS was removed, and then the prepared, purified phages were added to each well. The plate was allowed to stand at room temperature for one hour to allow binding of antibody-displaying phages to biotin-labeled hIL-6R in each well in the presence or absence of SC. After washing with TBST or SC/TBST, an HRP-conjugated anti-M13 antibody (Amersham Pharmacia Biotech) diluted with TBS or SC/TBS was added to each well. The plate was incubated for one hour. Following wash with TBST or SC/TBST, the TMB single solution (ZYMED) was added to each well. The chromogenic reaction in the solution of each well was terminated by adding sulfuric acid. Then, the developed color was assessed by measuring absorbance at 450 nm.
(In general: ELISA stands for enzyme-linked immunosorbent assay.)

Assay [2] concerns BaF/hIL6R (Ba/F3 cells expressing human IL-6 receptor). As to the kind of experiment: ADCC (chrome release) with human PBMC as effector cells against BaF/hIL6R cells. It counts as cell-based. How it is done: Variant 6RNMSC1-2_F02 with increased effector activity (the heavy chain and light chain sequences are shown in SEQ ID NOs: 94 and 91, respectively) was used. At various concentrations of 6RNMSC1-2_F02, ADCC activity against hIL-6R-expressing cells was assayed in the presence or absence of kynurenine according to the method described in Reference Example 1.
Furthermore, there is a difference in the kynurenine concentration between normal and tumor tissues, and thus it is preferable that the ADCC activity of an antibody is exerted against antigen-expressing tumor cells only at the kynurenine concentration in tumor tissues, while at the normal-tissue kynurenine concentration, the ADCC activity is impaired or not exerted. Then, 6RNMSC1-2_F02 was assessed for ADCC activity against hIL-6R-expressing cells at various kynurenine concentrations according to the method described in Reference Example 2. […] Furthermore, in contrast to the approximately 10% ADCC activity at 4 to 6 μM which is considered to be the kynurenine concentration in normal tissues, the ADCC activity at 30 to 40 μM which is considered to be the kynurenine concentration in tumor tissues was about 25%.
Antibodies that bind antigens in a kynurenine-dependent manner were assessed for their ADCC activity against antigen-expressing cells at different antibody concentrations according to the method described below. Human peripheral blood mononuclear cells (hereinafter referred to as human PBMC) were used as effector cells to measure the ADCC activity of each test antibody as follows.
Syringes pre-filled with 200 μl of 1000 units/ml heparin solution (Novo-Heparin 5000 units for Injection; Novo Nordisk) were used to collect 50 ml of peripheral blood from healthy volunteers (male adult) affiliated with Chugai Pharmaceutical Co. Ltd. The peripheral blood was diluted two-fold with PBS(−), and divided into four equal parts, each of which was transferred into a pre-centrifuged leukocyte separation tube Leucosep (Greiner Bio-One) containing 15 ml of Ficoll-Paque PLUS. The separation tubes containing an aliquot of the peripheral blood were centrifuged at 2150 rpm for ten minutes at room temperature. Then, the resulting mononuclear cell fractions were collected from the tubes. The cells in each fraction were washed once with RPMI-1640 (nacalai tesque) supplemented with 10% FBS (hereinafter referred to as 10% FBS/RPMI), and then suspended at a cell density of 1×10^7 cells/ml in 10% FBS/RPMI. The cell suspensions were used as the human PBMC solution in subsequent experiments. […]
ADCC activity was assessed based on specific chrome release rate determined by chrome release assay. […]

B1: 6RNMSC1-2_F02: antibody that binds to hIL-6R in the presence of kynurenine; SEQ ID NOs: 86 and 87 (antibody, listed as Homo sapiens, V domains shown)
VH: QVQLVQSGAEVKKPGSSVKVSCKASGGTFSSYAISWVRQAPGQGLEWMGGIIPIFGTANYAQKFQGRVTITADESTSTAYMELSSLRSEDTAVYYCARDAPVVARPRGAFDIWGQGTMVTVSS
VL: DIVMTQTPLSSPVTLGQPASISCRSSQSLVHSDGNTYLSWLQQRPGQPPRLLIHEISNRFSGVPDRFSGSGAGTNFTLKISRVEAEDVGVYYCMQATQFPRTFGQGTKVEIK
With B1, the “binding activity to hIL-6R in the presence of a small molecule cocktail (phage ELISA)” value in assay [1] is “have binding activity”. For the same molecule, the ADCC activity entry in assay [2] (at 4 to 6 μM kynurenine (considered the concentration in normal tissues)) is listed as “approximately 10%”; in assay [2] (at 30 to 40 μM kynurenine (considered the concentration in tumor tissues)) it was “about 25%”. Besides, the “ADCC activity against hIL-6R-expressing cells” value in assay [2] (in the presence of kynurenine, various antibody concentrations, variant with increased effector activity) is recorded as “induced by 6RNMSC1-2_F02 in an antibody concentration-dependent manner”. The “ADCC activity against hIL-6R-expressing cells at various kynurenine concentrations” value in assay [2] (various kynurenine concentrations) is “kynurenine concentration-dependent manner”.
